From PMC4417174 come the findings set out here.

The test system of the data set is PU.1ΔN167 (ETS domain) (murine). Nature of the data set: DMS footprinting. The note with it: saturating protein; Footprinting: 10 mM Tris-HCl pH 7.4, 150 mM NaCl, 0.1 mM EDTA, 0.5 g/l BSA, 0.1 g/l salmon sperm DNA; EMSA: 12% PAGE, 1x TBE, 0.1-10 uM protein; DLS: PBS, 25 C.

Regarding “PU.1 high-affinity site, 206-bp footprinting fragment”, the binding signal (% protection of core guanines vs unbound) is 90.
